Data reported in US20040077542A1 (University of Texas, published 2004).

Biological target: T1, GST-fusion protein of the second BIR (baculoviral IAP repeat) motif of XIAP (UniProt P98170 124-240)
T1 construct: also called recombinant IAP fragment; BIR2; not shown: glutathione S-transferase (GST) fusion partner; order of GST and BIR2 not
Assay: GST pull-down, radiolabeled peptide on GST-BIR2 glutathione resin (Example 9)

T1 sequence (P98170 124-240): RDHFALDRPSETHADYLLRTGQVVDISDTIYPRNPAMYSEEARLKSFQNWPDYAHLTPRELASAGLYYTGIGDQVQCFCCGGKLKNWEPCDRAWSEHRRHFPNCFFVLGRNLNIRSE

B1: Smac-7R: NH2-KQAIPVA-COOH (peptide)
peptide: H-KQAIPVA-OH
notes: also called negative control Smac-7R
B1: no binding.
